The values below are quoted from earlier work in article PMC3292877.

The target in the data set is ERK2 (Rattus norvegicus) (UniProt P63086).

With ERK2 (from UniProt P63086), the Kd is 7 nM.

The Kd is a measure of binding affinity in units of concentration.
